Patent US20200270325A1 (Merck Sharp & Dohme, published 2020)
Numbered stars: 1 amine (or outer) side, 2 acyl side, 3 side chain; on linkers, the order of the positions; unused ones are H or OH. Square brackets hold non-standard residues; d marks the D form. Side chains are listed from the residue outwards. Ends that are not written are not given here. * marks the point of attachment. Phe(4-CH2NH2) = NCc1ccc(C[C@H](N)C(=O)O)cc1; C18 diacid = O=C(O)CCCCCCCCCCCCCCCCC(=O)*; αMeW = C[C@](N)(Cc1c[nH]c2ccccc12)C(=O)O; C16 diacid = O=C(O)CCCCCCCCCCCCCCC(=O)*; γGlu = O=C(O)[C@H](CCC(=O)[*:2])N[*:1]; Met(O2) = CS(=O)(=O)CC[C@H](N)C(=O)O; αMeF = C[C@](N)(Cc1ccccc1)C(=O)O; αMeD = C[C@](N)(CC(=O)O)C(=O)O; AEEA = NCCOCCOCC(=O)O; Aib = CC(C)(N)C(=O)O

B1: TP609 (peptide)
peptide: H[Aib]QGTFTSDYSKYLDARAAQ[Phe(4-CH2NH2)]([AEEA-AEEA-γGlu-C18 diacid])FVQWLL[αMeD]T-NH2
modifications: N-terminus assumed
SMILES: CC(C)C[C@H](NC(=O)[C@H](Cc1ccc(O)cc1)NC(=O)[C@H](CCCCN)NC(=O)[C@H](CO)NC(=O)[C@H](Cc1ccc(O)cc1)NC(=O)[C@H](CC(=O)O)NC(=O)[C@H](CO)NC(=O)[C@@H](NC(=O)[C@H](Cc1ccccc1)NC(=O)[C@@H](NC(=O)CNC(=O)[C@H](CCC(N)=O)NC(=O)C(C)(C)NC(=O)[C@@H](N)Cc1c[nH]cn1)[C@@H](C)O)[C@@H](C)O)C(=O)N[C@@H](CC(=O)O)C(=O)N[C@@H](C)C(=O)N[C@@H](CCCNC(=N)N)C(=O)N[C@@H](C)C(=O)N[C@@H](C)C(=O)N[C@@H](CCC(N)=O)C(=O)N[C@@H](Cc1ccc(CNC(=O)COCCOCCNC(=O)COCCOCCNC(=O)CC[C@H](NC(=O)CCCCCCCCCCCCCCCCC(=O)O)C(=O)O)cc1)C(=O)N[C@@H](Cc1ccccc1)C(=O)N[C@H](C(=O)N[C@@H](CCC(N)=O)C(=O)N[C@@H](Cc1c[nH]c2ccccc12)C(=O)N[C@@H](CC(C)C)C(=O)N[C@@H](CC(C)C)C(=O)N[C@@](C)(CC(=O)O)C(=O)N[C@H](C(N)=O)[C@@H](C)O)C(C)C
B2: TP628 (peptide)
peptide: H[Aib]QGTFTSDYSKYLDARAAK([AEEA-γGlu-C18 diacid])DFVQWL[Met(O2)][αMeD]T-NH2
modifications: N-terminus assumed
SMILES: CC(C)C[C@H](NC(=O)[C@H](Cc1ccc(O)cc1)NC(=O)[C@H](CCCCN)NC(=O)[C@H](CO)NC(=O)[C@H](Cc1ccc(O)cc1)NC(=O)[C@H](CC(=O)O)NC(=O)[C@H](CO)NC(=O)[C@@H](NC(=O)[C@H](Cc1ccccc1)NC(=O)[C@@H](NC(=O)CNC(=O)[C@H](CCC(N)=O)NC(=O)C(C)(C)NC(=O)[C@@H](N)Cc1c[nH]cn1)[C@@H](C)O)[C@@H](C)O)C(=O)N[C@@H](CC(=O)O)C(=O)N[C@@H](C)C(=O)N[C@@H](CCCNC(=N)N)C(=O)N[C@@H](C)C(=O)N[C@@H](C)C(=O)N[C@@H](CCCCNC(=O)COCCOCCNC(=O)CC[C@H](NC(=O)CCCCCCCCCCCCCCCCC(=O)O)C(=O)O)C(=O)N[C@@H](CC(=O)O)C(=O)N[C@@H](Cc1ccccc1)C(=O)N[C@H](C(=O)N[C@@H](CCC(N)=O)C(=O)N[C@@H](Cc1c[nH]c2ccccc12)C(=O)N[C@@H](CC(C)C)C(=O)N[C@@H](CCS(C)(=O)=O)C(=O)N[C@@](C)(CC(=O)O)C(=O)N[C@H](C(N)=O)[C@@H](C)O)C(C)C
B3: TP630 (peptide)
peptide: H[Aib]QGTFTSDYSKYLDARAAK([AEEA-AEEA-γGlu-C16 diacid])DFVQ[αMeW]L[Met(O2)]DT-NH2
modifications: N-terminus assumed
SMILES: CC(C)C[C@H](NC(=O)[C@H](Cc1ccc(O)cc1)NC(=O)[C@H](CCCCN)NC(=O)[C@H](CO)NC(=O)[C@H](Cc1ccc(O)cc1)NC(=O)[C@H](CC(=O)O)NC(=O)[C@H](CO)NC(=O)[C@@H](NC(=O)[C@H](Cc1ccccc1)NC(=O)[C@@H](NC(=O)CNC(=O)[C@H](CCC(N)=O)NC(=O)C(C)(C)NC(=O)[C@@H](N)Cc1c[nH]cn1)[C@@H](C)O)[C@@H](C)O)C(=O)N[C@@H](CC(=O)O)C(=O)N[C@@H](C)C(=O)N[C@@H](CCCNC(=N)N)C(=O)N[C@@H](C)C(=O)N[C@@H](C)C(=O)N[C@@H](CCCCNC(=O)COCCOCCNC(=O)COCCOCCNC(=O)CC[C@H](NC(=O)CCCCCCCCCCCCCCC(=O)O)C(=O)O)C(=O)N[C@@H](CC(=O)O)C(=O)N[C@@H](Cc1ccccc1)C(=O)N[C@H](C(=O)N[C@@H](CCC(N)=O)C(=O)N[C@@](C)(Cc1c[nH]c2ccccc12)C(=O)N[C@@H](CC(C)C)C(=O)N[C@@H](CCS(C)(=O)=O)C(=O)N[C@@H](CC(=O)O)C(=O)N[C@H](C(N)=O)[C@@H](C)O)C(C)C
B4: TP640 (peptide)
peptide: H[Aib]QGTFTSDYSKLLDARAAK([AEEA-AEEA-γGlu-C18 diacid])DFVQWL[Met(O2)][αMeD]T-NH2
modifications: N-terminus assumed
SMILES: CC(C)C[C@H](NC(=O)[C@H](CC(C)C)NC(=O)[C@H](CCCCN)NC(=O)[C@H](CO)NC(=O)[C@H](Cc1ccc(O)cc1)NC(=O)[C@H](CC(=O)O)NC(=O)[C@H](CO)NC(=O)[C@@H](NC(=O)[C@H](Cc1ccccc1)NC(=O)[C@@H](NC(=O)CNC(=O)[C@H](CCC(N)=O)NC(=O)C(C)(C)NC(=O)[C@@H](N)Cc1c[nH]cn1)[C@@H](C)O)[C@@H](C)O)C(=O)N[C@@H](CC(=O)O)C(=O)N[C@@H](C)C(=O)N[C@@H](CCCNC(=N)N)C(=O)N[C@@H](C)C(=O)N[C@@H](C)C(=O)N[C@@H](CCCCNC(=O)COCCOCCNC(=O)COCCOCCNC(=O)CC[C@H](NC(=O)CCCCCCCCCCCCCCCCC(=O)O)C(=O)O)C(=O)N[C@@H](CC(=O)O)C(=O)N[C@@H](Cc1ccccc1)C(=O)N[C@H](C(=O)N[C@@H](CCC(N)=O)C(=O)N[C@@H](Cc1c[nH]c2ccccc12)C(=O)N[C@@H](CC(C)C)C(=O)N[C@@H](CCS(C)(=O)=O)C(=O)N[C@@](C)(CC(=O)O)C(=O)N[C@H](C(N)=O)[C@@H](C)O)C(C)C
B5: TP594 (peptide)
peptide: HXQGTFTSDYSKYLDARAAXXFVQWLXDT
modifications: Aib (U) at 2; K(PEG2PEG2γEC20-OH) at 20; αMD at 21; L-methionine sulphone (2) at 27; C-terminal amide
B6: TP577 (peptide)
peptide: HXQGTFTSDYSKYLDSRAAXDFVQWLXDT
modifications: Aib (U) at 2; K(PEG2PEG2γEC20-OH) at 20; L-methionine sulphone (2) at 27; C-terminal amide
B7: TP587 (peptide)
peptide: H[Aib]QGTFTSDYSKYLDERAA[Phe(4-CH2NH2)]([AEEA-AEEA-γGlu-C18 diacid])DFVQWLLKT-NH2
modifications: N-terminus assumed
SMILES: CC(C)C[C@H](NC(=O)[C@H](Cc1ccc(O)cc1)NC(=O)[C@H](CCCCN)NC(=O)[C@H](CO)NC(=O)[C@H](Cc1ccc(O)cc1)NC(=O)[C@H](CC(=O)O)NC(=O)[C@H](CO)NC(=O)[C@@H](NC(=O)[C@H](Cc1ccccc1)NC(=O)[C@@H](NC(=O)CNC(=O)[C@H](CCC(N)=O)NC(=O)C(C)(C)NC(=O)[C@@H](N)Cc1c[nH]cn1)[C@@H](C)O)[C@@H](C)O)C(=O)N[C@@H](CC(=O)O)C(=O)N[C@@H](CCC(=O)O)C(=O)N[C@@H](CCCNC(=N)N)C(=O)N[C@@H](C)C(=O)N[C@@H](C)C(=O)N[C@@H](Cc1ccc(CNC(=O)COCCOCCNC(=O)COCCOCCNC(=O)CC[C@H](NC(=O)CCCCCCCCCCCCCCCCC(=O)O)C(=O)O)cc1)C(=O)N[C@@H](CC(=O)O)C(=O)N[C@@H](Cc1ccccc1)C(=O)N[C@H](C(=O)N[C@@H](CCC(N)=O)C(=O)N[C@@H](Cc1c[nH]c2ccccc12)C(=O)N[C@@H](CC(C)C)C(=O)N[C@@H](CC(C)C)C(=O)N[C@@H](CCCCN)C(=O)N[C@H](C(N)=O)[C@@H](C)O)C(C)C
B8: TP595 (peptide)
peptide: H[Aib]QGTFFSDYSKYLDARAAK([AEEA-AEEA-γGlu-C18 diacid])DFVQWL[Met(O2)]DT-NH2
modifications: N-terminus assumed
SMILES: CC(C)C[C@H](NC(=O)[C@H](Cc1ccc(O)cc1)NC(=O)[C@H](CCCCN)NC(=O)[C@H](CO)NC(=O)[C@H](Cc1ccc(O)cc1)NC(=O)[C@H](CC(=O)O)NC(=O)[C@H](CO)NC(=O)[C@H](Cc1ccccc1)NC(=O)[C@H](Cc1ccccc1)NC(=O)[C@@H](NC(=O)CNC(=O)[C@H](CCC(N)=O)NC(=O)C(C)(C)NC(=O)[C@@H](N)Cc1c[nH]cn1)[C@@H](C)O)C(=O)N[C@@H](CC(=O)O)C(=O)N[C@@H](C)C(=O)N[C@@H](CCCNC(=N)N)C(=O)N[C@@H](C)C(=O)N[C@@H](C)C(=O)N[C@@H](CCCCNC(=O)COCCOCCNC(=O)COCCOCCNC(=O)CC[C@H](NC(=O)CCCCCCCCCCCCCCCCC(=O)O)C(=O)O)C(=O)N[C@@H](CC(=O)O)C(=O)N[C@@H](Cc1ccccc1)C(=O)N[C@H](C(=O)N[C@@H](CCC(N)=O)C(=O)N[C@@H](Cc1c[nH]c2ccccc12)C(=O)N[C@@H](CC(C)C)C(=O)N[C@@H](CCS(C)(=O)=O)C(=O)N[C@@H](CC(=O)O)C(=O)N[C@H](C(N)=O)[C@@H](C)O)C(C)C

Experiments:
[1] = target: human GLP-1 receptor (GLP1R) (human, UniProt P43220 24-463); assay: cell-based or functional assay
[2] = target: human Glucagon receptor (GCGR) (human, UniProt P47871 26-477); assay: cell-based or functional assay
human Glucagon receptor (GCGR), sequence (P47871 26-477): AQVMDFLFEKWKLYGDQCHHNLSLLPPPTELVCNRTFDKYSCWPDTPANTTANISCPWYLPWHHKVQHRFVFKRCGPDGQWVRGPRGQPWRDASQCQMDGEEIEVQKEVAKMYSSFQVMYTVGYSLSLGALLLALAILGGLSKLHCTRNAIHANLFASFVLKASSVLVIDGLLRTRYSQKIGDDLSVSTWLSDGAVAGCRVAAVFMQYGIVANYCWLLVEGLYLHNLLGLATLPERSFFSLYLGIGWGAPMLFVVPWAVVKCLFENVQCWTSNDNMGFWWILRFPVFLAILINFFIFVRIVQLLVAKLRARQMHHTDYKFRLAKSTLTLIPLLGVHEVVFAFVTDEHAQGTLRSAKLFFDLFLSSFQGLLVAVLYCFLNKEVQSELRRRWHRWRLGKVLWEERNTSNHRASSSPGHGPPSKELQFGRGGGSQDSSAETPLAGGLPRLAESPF

Row | Binder | GLP1R EC50 human [1] [nM] | GCGR EC50 human [2] [nM]
1 | B1 | 0.42 | 0.36
2 | B2 | 1.39 | 0.86
3 | B3 | 0.29 | 0.89
4 | B4 | 0.84 | 0.69
5 | H[Aib]QGTFTSDYSKYLDARAAK([AEEA-AEEA-γGlu-C20‑OH])D[αMeF]VQWL[Met(O2)]DT-NH2 [TP590] | 1.64 | 5.03
6 | HXQGTFTSDXSKYLDARAAQDFVQWLLDT (D-Ser (s) at 2; Nle(1,2,3-triazole-4-C15) at 10; C-terminal amide) [TP829] | 0.68 | 1.06
7 | HXQGTFTSDXSKYLDARAAQDFVQWLLDT (D-Ser (s) at 2; Nle(1,2,3-triazole-4-γE-C16) at 10; C-terminal amide) [TP830] | 0.22 | 0.14
8 | HXQGTFTSDXSKYLDARAAQDFVQWLLDT (D-Ser (s) at 2; Nle(1,2,3-triazole-4-C4-Lys-C16) at 10; C-terminal amide) [TP831] | 0.08 | 0.14
9 | B5 | 2.6 | 4.95
10 | H[Aib]QGTFTSDYSKYLD[Aib]RAAQDFVK([AEEA-AEEA-γGlu-C20‑OH])WL[Met(O2)]DT-NH2 [TP576] | 1.88 | 1.45
11 | H[dS]QGTFTSDYSKYLE[Aib]RAAK([AEEA-AEEA-γGlu-C20‑OH])DFVQWLL[Aib]TK-{γGlu-NH2} [TP579] | 14.7 | > 19.9
12 | B6 | 1.67 | 4.54
13 | H[Aib]QGTFTSDYSKYLDERAA[Phe(4-CH2NH2)]([AEEA-AEEA-γGlu-C20‑OH])DFVQWLLKT-NH2 [TP586] | 1.23 | 4.95
14 | B7 | 0.41 | 2.49
15 | B8 | > 20 | 0.4
